From paper PMC2844433, “Polo-Like Kinase 2-Dependent Phosphorylation of NPM/B23 on Serine 4 Triggers Centriole Duplication” (PLoS ONE, 2010)

Molecular target: T1, Recombinant His-tagged NPM/B23 (UniProt P06748 1-294)
T1 construct: NPM/B23 (Nucleophosmin), bacterially produced, unphosphorylated; also called His-NPM/B23; His-tagged NPM/B23 WT; source: E. coli BL21, purified (Ni-NTA agarose)
Assay: pull-down; in vitro binding assay: Flag-Plk2 fragments immunoprecipitated from 293T cells, bound to Protein G sepharose, incubated with 15 µg recombinant His-NPM/B23 in PBS with 0.05% NP-40 for 2 h at 4°C; Western blot
Conditions: both partners purified

T1 sequence (P06748 whole entry): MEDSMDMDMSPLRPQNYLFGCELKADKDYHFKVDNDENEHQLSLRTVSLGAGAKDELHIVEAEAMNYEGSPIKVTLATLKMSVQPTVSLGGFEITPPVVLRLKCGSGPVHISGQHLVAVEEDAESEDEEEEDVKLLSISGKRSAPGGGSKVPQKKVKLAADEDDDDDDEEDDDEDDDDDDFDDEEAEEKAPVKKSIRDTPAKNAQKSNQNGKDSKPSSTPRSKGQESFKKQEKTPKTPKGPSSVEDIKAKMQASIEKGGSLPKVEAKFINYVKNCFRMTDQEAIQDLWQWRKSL

B1: Flag-Plk2-(aa 590–685) (domain or fragment, UniProt Q9NYY3 590-685, looked up)
chain: PSVTDIRRPRLYLLQWLKSDKALMMLFNDGTFQVNFYHDHTKIIICSQNEEYLLTYINEDRISTTFRLTTLLMSGCSSELKNRMEYALNMLLQRCN
notes: also called second Polo-box of Plk2; source: 293T, transfected, immunoprecipitated with anti-Flag antibodies
binding result: binds
